The text below walks through data of US20140004580A1, “MODIFIED PHOTOSYNTHETIC MICROORGANISMS FOR PRODUCING LIPIDS” (Matrix Genetics, LLC, priority 2010, published 2014).

Holding throughout (assay type): biochemical, Synechococcus elongatus PCC7942
Data set [1] concerns purified h6-orf0489. The data set can be described thus: orf0489 aldehyde dehydrogenase activity assay with nonyl-aldehyde (NAD(P)H production at 340 nm). Conditions: nonyl-aldehyde 1 mM; h6-orf0489 0.3, 1.5 or 6 μM; NAD+ or NAD(P)+ 1 mM; 30 minutes. The protocol: The reaction was started by mixing together a fatty aldehyde substrate, purified h6-orf0489 and NAD(P)+. The progress of the reaction was assessed by measuring the production of NAD(P)H at 340 nm using the SpectraMax M5. […] Nonyl-aldehyde and either NAD+ or NAD(P)+ were used at 1 mM. Measurements were taken every 30 seconds for 30 minutes.
To directly test whether orf0489 is an aldehyde dehydrogenase, a histidine-tagged version of this protein (h6-orf0489) was overexpressed in E. coli and purified using metal affinity chromatography. The purified protein was then employed in an in vitro reaction using a fatty aldehyde as a substrate.
The reaction was started by mixing together a fatty aldehyde substrate (nonyl-aldehyde at 1 mM), various concentrations of purified h6-orf0489 (0.3, 1.5 or 6 μM final concentration), and NAD+ or NAD(P)+ at 1 mM. The progress of the reaction was assessed by measuring the production of NAD(P)H at 340 nm using the SpectraMax M5; measurements were taken every 30 seconds for 30 minutes.

In data set [2] the target is h6-0489 (histidine-tagged orf0489 aldehyde dehydrogenase) (Synechococcus elongatus, UniProt Q31QZ8). Put plainly: Enzymatic characterization of h6-0489 with fatty aldehydes of varying chain length (NADH production at 340 nm). The protocol: (§1) The protein eluted off of SEC as a single monodisperse peak. The enzymatic characteristics of purified protein were then measured in vitro using fatty aldehydes of varying chain length (4-16) as substrate. In this assay, h6-0489 was incubated with 150 mM NaCl, 50 mM Tris, pH 7.5, 0.05% IGEPAL, 1 mM NAD+ and varying concentrations of the fatty aldehyde substrate being tested. The reaction was carried out in a cuvette with a 1 cm pathlength, and the progress was assessed by measuring the production of NADH at 340 nm using a SpectraMax M5 spectrophotometer. Measurements were taken every second for 2-5 minutes, and the initial velocities of each reaction were determined in the linear range. The A340 was converted into amount of NADH formed using the molar extinction coefficient for NADH (6200 M^−1 cm^−1). The Michaelis constants Km and Vmax were determined by fitting the data using non-linear progression in Prism to the equation Y=(Vmax*X)/(Km+X), where X=substrate concentration and Y=velocity. Kcat was determined from the equation Vmax=Kcat*Et, where Et=the concentration of h6-0489. Data are presented in Table C as averages of at least three different experiments, with errors presented as standard deviation.

Substrate in data set [3]: CCCC=O
The description is as above. The conditions noted are these: other: aldehyde as substrate, 1 mM NAD+, pH 7.5, average of at least three experiments. The method, then:
as §1

Substrate in data set [4]: CCCCCC=O
The description is as above. Conditions: other: aldehyde as substrate, 1 mM NAD+, pH 7.5, average of at least three experiments. The protocol:
as §1

Substrate in data set [5]: CCCCCCCC=O
Described as above. The conditions noted are these: other: aldehyde as substrate, 1 mM NAD+, pH 7.5, average of at least three experiments. The protocol: as §1

Substrate in data set [6]: CCCCCCCCCC=O
Described as above. The conditions noted are these: other: aldehyde as substrate, 1 mM NAD+, pH 7.5, average of at least three experiments. The method, then:
as §1

Substrate in data set [7]: CCCCCCCCCCCC=O
Described as above. Conditions: other: aldehyde as substrate, 1 mM NAD+, pH 7.5, average of at least three experiments. The protocol: as §1

`CCCCCCCCC=O` [nonyl-aldehyde]: the “utilization as substrate (increased NAD(P)H production relative to controls)” value in data set [1] is “utilizes nonyl-aldehyde as a substrate”.
As for hexadecenal, in data set [2] (aldehyde as substrate, 1 mM NAD+, 150 mM NaCl, 50 mM Tris pH 7.5, 0.05% IGEPAL, average of at least three experiments), the “kcat (AVE)” value turned out to be 10.8 s⁻¹. The Michaelis constant (Km) in data set [2] (aldehyde as substrate, 1 mM NAD+, pH 7.5, average of at least three experiments, read-out: (μM) (AVE) [Km]) was 38.1 µM. In addition, the “oxidation of the aldehyde to a free fatty acid by h6-0489 in vitro” value in data set [2] (in vitro) is listed as “able to oxidize hexadecenal to a free fatty acid”.

B1: h6-0489 (histidine-tagged orf0489 aldehyde dehydrogenase) (Synechococcus elongatus PCC 7942 = FACHB-805) (protein)
chain: MTAVVLPAAAETLAALQATFDRGDTRTLAFRLARLQDLAKLVADNEAELLQALASDLRKPALEAYASEIYFVRDQIKLTCKHLRRWMQPEKQSISLMQQPGQAYRQAEPLGVVLIIGPWNYPFQLLITPLIGAIAAGNCAVLKPSELAPATSSLIQRLISDRFDPDYIRVLEGDASVSQALITQPFDHIFFTGGTAIGRKVMAAAAENLTPVTLELGGKSPCIVDTDIDLDVAARRIAWGKFFNAGQTCIAPDYLLVQRTVAEPFIEALIDNIQQFYGEDPQQSADYARIVSDRHWQRLNSLLVDGTIRHGGQVDRSDRYIAPTLITDVNWRDPILQEEIFGPLLPILIYDQLDEAIAQIRAQPKPLALYLFSRDRQVQERVLAETSAGSVCLNDTILQVGVPDAAFGGVGPSGMGGYHGKASFETFSHYKLVLKRPFWLDLALRYPPYGDKINLFRKL
With B1, the Km was determined as 189.4 µM in data set [3]; 19.3 µM in data set [4]; 15.4 µM in data set [5]; 7.6 µM in data set [6]; 11.4 µM in data set [7]. Also, the kcat in data set [3] turned out to be 7.65 s⁻¹; in data set [4], 8.51 s⁻¹; in data set [5], 13.5 s⁻¹; in data set [6], 12.1 s⁻¹; in data set [7], 9.29 s⁻¹. The specificity constant (kcat/Km) was determined as 40000 M⁻¹ s⁻¹ in data set [3]; 442000 M⁻¹ s⁻¹ in data set [4]; 875000 M⁻¹ s⁻¹ in data set [5]; 1.59e+06 M⁻¹ s⁻¹ in data set [6]; 818000 M⁻¹ s⁻¹ in data set [7].

By Km is commonly meant the concentration of substrate that gives half-maximal velocity. By kcat is commonly meant the maximal rate divided by the concentration of active sites. As usually defined, the kcat/Km is the second-order rate constant that governs catalysis at low substrate concentration.
